According to paper PMC4300553 (2015):
Ends that are not written are not given here. fluorescein = fluorescein label on the N-terminus of the peptide

Tests used:
Assay in all cases: fluorescence anisotropy
[1] = target: T1, Src-optimal substrate peptide Rs1 (synthetic construct)
T1 chain: fluorescein-AEEEIYGEFAKKK

[2] = target: T2, Src-optimal substrate peptide Rs1 (synthetic construct)
T2 chain: fluorescein-AEEEIYGEFAKKK

[3] = target: T3, Src-optimal substrate peptide Rs1 (synthetic construct)
T3 chain: fluorescein-AEEEIYGEFAKKK

B1: Src kinase domain 251-533 (protein)
chain: QTQGLAKDAWEIPRESLRLEVKLGQGCFGEVWMGTWNGTTRVAIKTLKPGTMSPEAFLQEAQVMKKLRHEKLVQLYAVVSEEPIYIVTEYMSKGSLLDFLKGEMGKYLRLPQLVDMAAQIASGMAYVERMNYVHRDLRAANILVGENLVCKVADFGLARLIEDNEYTARQGAKFPIKWTAPEAALYGRFTIKSDVWSFGILLTELTTKGRVPYPGMVNREVLDQVERGYRMPCPPECPESLHDLMCQCWRKDPEERPTFEYLQAFLEDYFTSTEPQYQPGENL
A Kd [1] of 37 µM, a Kd [2] of 17 µM and a Kd [3] of 16 µM were found for B1 in this work.
